In IntAct's records for PubMed 31515488:

B1: Notch homolog 2 N-terminal-like protein A (Homo sapiens), Q7Z3S9 (parent)
chain: MCVTYHNGTGYCKCPEGFLGEYCQHRDPCEKNRCQNGGTCVAQAMLGKATCRCASGFTGEDCQYSTSHPCFVSRPCLNGGTCHMLSRDTYECTCQVGFTGKECQWTDACLSHPCANGSTCTTVANQFSCKCLTGFTGQKCETDVNECDIPGHCQHGGTCLNLPGSYQCQCLQGFTGQYCDSLYVPCAPSPCVNGGTCRQTGDFTFECNCLPETVRRGTELWERDREVWNGKEHDEN
partner: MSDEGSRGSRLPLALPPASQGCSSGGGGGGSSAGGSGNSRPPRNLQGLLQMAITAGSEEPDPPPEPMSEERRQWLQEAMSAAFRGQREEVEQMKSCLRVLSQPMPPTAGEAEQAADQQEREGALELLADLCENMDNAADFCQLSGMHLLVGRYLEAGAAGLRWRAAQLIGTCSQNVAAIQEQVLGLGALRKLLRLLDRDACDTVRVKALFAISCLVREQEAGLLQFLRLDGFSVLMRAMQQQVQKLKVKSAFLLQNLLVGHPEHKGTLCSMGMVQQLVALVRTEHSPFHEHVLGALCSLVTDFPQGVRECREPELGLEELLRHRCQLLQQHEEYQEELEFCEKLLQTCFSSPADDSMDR
B2: Microtubule-associated tumor suppressor candidate 2 (Homo sapiens), Q5JR59-3 (parent)
chain: MGHCCCKPYNCLQCLDKTNESALVKEKELSIELANIRDEVAFHTAKCEKLQKEKEELERRFEDEVKRLGWQQQAELQELEERLQLQFEAEMARLQEEHGDQLLSIRCQHQEQVEDLTASHDAALLEMENNHTVAITILQDDHDHKVQELMSTHELEKKELEENFEKLRLSLQDQVDTLTFQSQSLRDRARRFEEALRKNTEEQLEIALAPYQHLEEDMKSLKQVLEMKNQQIHEQEKKILELEKLAEKNIILEEKIQVLQQQNEDLKARIDQNTVVTRQLSEENANLQEYVEKETQEKKRLSRTNEELLWKLQTGDPTSPIKLSPTSPVYRGSSSGPSSPARVSTTPR
partner: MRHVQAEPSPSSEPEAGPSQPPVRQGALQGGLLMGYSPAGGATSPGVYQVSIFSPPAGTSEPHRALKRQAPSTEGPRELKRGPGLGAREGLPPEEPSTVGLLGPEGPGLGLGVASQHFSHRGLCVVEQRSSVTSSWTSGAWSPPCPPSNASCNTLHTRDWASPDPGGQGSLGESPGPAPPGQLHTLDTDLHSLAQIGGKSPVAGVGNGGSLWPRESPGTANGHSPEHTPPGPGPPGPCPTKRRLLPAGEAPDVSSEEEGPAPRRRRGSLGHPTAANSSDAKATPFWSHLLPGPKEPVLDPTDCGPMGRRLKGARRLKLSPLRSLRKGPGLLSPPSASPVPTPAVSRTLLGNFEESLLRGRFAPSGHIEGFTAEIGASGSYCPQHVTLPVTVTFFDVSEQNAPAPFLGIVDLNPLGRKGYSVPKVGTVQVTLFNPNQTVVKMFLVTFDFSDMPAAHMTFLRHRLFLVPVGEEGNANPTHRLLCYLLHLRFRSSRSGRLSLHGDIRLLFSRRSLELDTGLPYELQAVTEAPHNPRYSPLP
B3: SH2 domain-containing protein 4A (Homo sapiens), Q9H788 (parent)
chain: MLKQILSEMYIDPDLLAELSEEQKQILFFKMREEQIRRWKEREAAMERKESLPVKPRPKKENGKSVHWKLGADKEVWVWVMGEHHLDKPYDVLCNEIIAERARLKAEQEAEEPRKTHSEEFTNSLKTKSQYHDLQAPDNQQTKDIWKKVAEKEELEQGSRPAPTLEEEKIRSLSSSSRNIQQMLADSINRMKAYAFHQKKESMKKKQDEEINQIEEERTKQICKSWKEDSEWQASLRKSKAADEKRRSLAKQAREDYKRLSLGAQKGRGGERLQSPLRVPQKPERPPLPPKPQFLNSGAYPQKPLRNQGVVRTLSSSAQEDIIRWFKEEQLPLRAGYQKTSDTIAPWFHGILTLKKANELLLSTGMPGSFLIRVSERIKGYALSYLSEDGCKHFLIDASADAYSFLGVDQLQHATLADLVEYHKEEPITSLGKELLLYPCGQQDQLPDYLELFE
partner: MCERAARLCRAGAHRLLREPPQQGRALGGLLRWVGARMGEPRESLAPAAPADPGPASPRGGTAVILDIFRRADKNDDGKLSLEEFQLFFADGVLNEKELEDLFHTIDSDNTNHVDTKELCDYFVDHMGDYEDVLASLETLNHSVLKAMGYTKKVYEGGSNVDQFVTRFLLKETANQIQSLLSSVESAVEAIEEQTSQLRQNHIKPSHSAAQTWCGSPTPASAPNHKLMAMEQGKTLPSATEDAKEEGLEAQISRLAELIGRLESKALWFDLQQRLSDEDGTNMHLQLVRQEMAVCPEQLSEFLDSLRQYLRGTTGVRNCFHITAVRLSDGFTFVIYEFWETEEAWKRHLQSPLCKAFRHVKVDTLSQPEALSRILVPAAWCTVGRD
B4: Zinc finger CCCH-type with G patch domain-containing protein (Homo sapiens), Q8N5A5 (parent)
chain: MDEESLESALQTYRAQLQQVELALGAGLDSSEQADLRQLQGDLKELIELTEASLVSVRKSSLLAALDEERPGRQEDAEYQAFREAITEAVEAPAAARGSGSETVPKAEAGPESAAGGQEEEEGEDEEELSGTKVSAPYYSSWGTLEYHNAMVVGTEEAEDGSAGVRVLYLYPTHKSLKPCPFFLEGKCRFKENCRFSHGQVVSLDELRPFQDPDLSSLQAGSACLAKHQDGLWHAARITDVDNGYYTVKFDSLLLREAVVEGDGILPPLRTEATESDSDSDGTGDSSYARVVGSDAVDSAQSSALCPSLAVVGSDAVDSGTCSSAFAGWEVHTRGIGSRLLTKMGYEFGKGLGRHAEGRVEPIHAVVLPRGKSLDQCVETLQKQTRVGKAGTNKPPRCRGRGARPGGRPAPRNVFDFLNEKLQGQAPGALEAGAAPAGRRSKDMYHASKSAKRALSLRLFQTEEKIERTQRDIRSIQEALARNAGRHSVASAQLQEKLAGAQRQLGQLRAQEAGLQQEQRKADTHKKMTEF
partner: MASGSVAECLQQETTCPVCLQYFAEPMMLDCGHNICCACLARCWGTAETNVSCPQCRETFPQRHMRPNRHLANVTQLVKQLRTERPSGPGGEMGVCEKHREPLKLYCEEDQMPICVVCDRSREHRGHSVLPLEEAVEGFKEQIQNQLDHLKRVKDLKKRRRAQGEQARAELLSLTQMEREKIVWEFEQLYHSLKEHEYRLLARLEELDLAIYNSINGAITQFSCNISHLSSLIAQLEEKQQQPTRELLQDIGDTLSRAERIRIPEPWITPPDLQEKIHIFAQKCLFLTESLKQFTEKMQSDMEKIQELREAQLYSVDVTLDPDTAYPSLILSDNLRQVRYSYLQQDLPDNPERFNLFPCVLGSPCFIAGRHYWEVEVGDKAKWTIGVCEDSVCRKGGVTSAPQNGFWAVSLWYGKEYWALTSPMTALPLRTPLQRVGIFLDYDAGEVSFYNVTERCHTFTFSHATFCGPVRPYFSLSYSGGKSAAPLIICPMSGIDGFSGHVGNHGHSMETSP
B5: Serine/threonine-protein kinase PAK 5 (Homo sapiens), Q9P286 (parent)
chain: MFGKKKKKIEISGPSNFEHRVHTGFDPQEQKFTGLPQQWHSLLADTANRPKPMVDPSCITPIQLAPMKTIVRGNKPCKETSINGLLEDFDNISVTRSNSLRKESPPTPDQGASSHGPGHAEENGFITFSQYSSESDTTADYTTEKYREKSLYGDDLDPYYRGSHAAKQNGHVMKMKHGEAYYSEVKPLKSDFARFSADYHSHLDSLSKPSEYSDLKWEYQRASSSSPLDYSFQFTPSRTAGTSGCSKESLAYSESEWGPSLDDYDRRPKSSYLNQTSPQPTMRQRSRSGSGLQEPMMPFGASAFKTHPQGHSYNSYTYPRLSEPTMCIPKVDYDRAQMVLSPPLSGSDTYPRGPAKLPQSQSKSGYSSSSHQYPSGYHKATLYHHPSLQSSSQYISTASYLSSLSLSSSTYPPPSWGSSSDQQPSRVSHEQFRAALQLVVSPGDPREYLANFIKIGEGSTGIVCIATEKHTGKQVAVKKMDLRKQQRRELLFNEVVIMRDYHHDNVVDMYSSYLVGDELWVVMEFLEGGALTDIVTHTRMNEEQIATVCLSVLRALSYLHNQGVIHRDIKSDSILLTSDGRIKLSDFGFCAQVSKEVPKRKSLVGTPYWMAPEVISRLPYGTEVDIWSLGIMVIEMIDGEPPYFNEPPLQAMRRIRDSLPPRVKDLHKVSSVLRGFLDLMLVREPSQRATAQELLGHPFLKLAGPPSCIVPLMRQYRHH
partner: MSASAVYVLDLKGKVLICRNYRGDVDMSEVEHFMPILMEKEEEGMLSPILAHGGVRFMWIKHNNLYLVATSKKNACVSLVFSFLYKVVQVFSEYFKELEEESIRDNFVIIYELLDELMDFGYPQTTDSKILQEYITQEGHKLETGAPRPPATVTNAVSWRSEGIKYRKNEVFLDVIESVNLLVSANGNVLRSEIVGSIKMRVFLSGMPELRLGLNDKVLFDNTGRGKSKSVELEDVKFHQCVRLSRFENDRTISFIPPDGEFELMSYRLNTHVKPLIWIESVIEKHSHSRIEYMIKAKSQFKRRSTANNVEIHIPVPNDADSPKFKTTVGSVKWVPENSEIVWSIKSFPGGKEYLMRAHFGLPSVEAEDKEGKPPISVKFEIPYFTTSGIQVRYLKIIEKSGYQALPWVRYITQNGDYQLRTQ
B6: Cyclin-D1-binding protein 1 (Homo sapiens), O95273 (parent)
chain: MASATAPAAAVPTLASPLEQLRHLAEELRLLLPRVRVGEAQETTEEFNREMFWRRLNEAAVTVSREATTLTIVFSQLPLPSPQETQKFCEQVHAAIKAFIAVYYLLPKDQGITLRKLVRGATLDIVDGMAQLMEVLSVTPTQSPENNDLISYNSVWVACQQMPQIPRDNKAAALLMLTKNVDFVKDAHEEMEQAVEECDPYSGLLNDTEENNSDNHNHEDDVLGFPSNQDLYWSEDDQELIIPCLALVRASKACLKKIRMLVAENGKKDQVAQLDDIVDISDEISPSVDDLALSIYPPMCHLTVRINSAKLVSVLKKALEITKASHVTPQPEDSWIPLLINAIDHCMNRIKELTQSELEL
partner: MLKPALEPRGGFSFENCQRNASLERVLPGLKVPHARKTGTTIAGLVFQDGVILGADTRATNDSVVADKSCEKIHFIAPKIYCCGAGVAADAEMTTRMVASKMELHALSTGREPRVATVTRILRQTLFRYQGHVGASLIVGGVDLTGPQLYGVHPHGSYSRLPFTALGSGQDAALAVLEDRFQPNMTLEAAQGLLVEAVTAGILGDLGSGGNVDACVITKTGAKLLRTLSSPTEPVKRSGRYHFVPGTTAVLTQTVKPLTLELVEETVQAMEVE
B7: F-box only protein 3 (Homo sapiens), Q9UK99 (parent)
chain: MAAMETETAPLTLESLPTDPLLLILSFLDYRDLINCCYVSRRLSQLSSHDPLWRRHCKKYWLISEEEKTQKNQCWKSLFIDTYSDVGRYIDHYAAIKKAWDDLKKYLEPRCPRMVLSLKEGAREEDLDAVEAQIGCKLPDDYRCSYRIHNGQKLVVPGLLGSMALSNHYRSEDLLDVDTAAGGFQQRQGLKYCLPLTFCIHTGLSQYIAVEAAEGRNKNEVFYQCPDQMARNPAAIDMFIIGATFTDWFTSYVKNVVSGGFPIIRDQIFRYVHDPECVATTGDITVSVSTSFLPELSSVHPPHYFFTYRIRIEMSKDALPEKACQLDSRYWRITNAKGDVEEVQGPGVVGEFPIISPGRVYEYTSCTTFSTTSGYMEGYYTFHFLYFKDKIFNVAIPRFHMACPTFRVSIARLEMGPDEYEEMEEEEEEEEEEDEDDDSADMDESDEDDEEERRRRVFDVPIRRRRCSRLF
B8: Melanoma-associated antigen F1 (Homo sapiens), Q9HAY2 (parent)
chain: MLQTPESRGLPVPQAEGEKDGGHDGETRAPTASQERPKEELGAGREEGAAEPALTRKGARALAAKALARRRAYRRLNRTVAELVQFLLVKDKKKSPITRSEMVKYVIGDLKILFPDIIARAAEHLRYVFGFELKQFDRKHHTYILINKLKPLEEEEEEDLGGDGPRLGLLMMILGLIYMRGNSAREAQVWEMLRRLGVQPSKYHFLFGYPKRLIMEDFVQQRYLSYRRVPHTNPPEYEFSWGPRSNLEISKMEVLGFVAKLHKKEPQHWPVQYREALADEADRARAKARAEASMRARASARAGIHLW

Variants of: B1
Details: with hpbp1_human HSPBP1, Q9NZL4

| Variant | effect of a mutation on the interaction |
| --- | --- |
| A115T | with no effect |

Variants of: B2
Details: with atosb_human ATOSB

| Variant | effect of a mutation on the interaction |
| --- | --- |
| A89V | with no effect |

Variants of: B3
Details: with neca2_human NECAB2, Q7Z6G3

| Variant | effect of a mutation on the interaction |
| --- | --- |
| G263A | with no effect |
| K303R | with no effect |
| E216G | with no effect |

Variants of: B4
Details: with tri27_human TRIM27, P14373

| Variant | effect of a mutation on the interaction |
| --- | --- |
| S61R | with no effect |

Variants of: B5
Details: with ap1m1_human AP1M1, Q9BXS5

| Variant | effect of a mutation on the interaction |
| --- | --- |
| S511N | with no effect |
| V604I | with no effect |

Variants of: B6
Details: with psb10_human PSMB10, P40306

| Variant | effect of a mutation on the interaction |
| --- | --- |
| I277T | disrupting interaction strength |

Variants of: B7
Details: with skp1_human SKP1, P63208
Sequence of skp1_human SKP1, P63208 (P63208 whole entry): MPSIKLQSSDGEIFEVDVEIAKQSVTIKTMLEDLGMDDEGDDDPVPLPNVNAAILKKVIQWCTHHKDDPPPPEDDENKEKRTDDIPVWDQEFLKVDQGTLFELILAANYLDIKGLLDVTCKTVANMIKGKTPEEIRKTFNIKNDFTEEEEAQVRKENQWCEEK

| Variant | effect of a mutation on the interaction |
| --- | --- |
| P10S | with no effect |

Variants of: B8
Details: with mdfi_human MDFI

| Variant | effect of a mutation on the interaction |
| --- | --- |
| K93R | with no effect |
